Holding throughout (test): purified protein
Substrate in data set [1]: COc1cc(-c2ccc(N)c(OC)c2)ccc1N
Conditions: pH 5.5.

Substrate in data set [2]: NC(=O)c1ccc[n+]([C@@H]2O[C@H](COP(=O)(O)OP(=O)(O)OC[C@H]3O[C@@H](n4cnc5c(N)ncnc54)[C@H](O)[C@@H]3O)[C@@H](O)[C@H]2O)c1
Conditions: pH 7.5.

Substrate in data set [3]: NNC(=O)c1ccncc1
Conditions: pH 7.5.

B1: WT-KatG (Mt-KatG, Mycobacterium tuberculosis catalase-peroxidase) (Mycobacterium tuberculosis H37Rv) (protein)
chain: MPEQHPPITETTTGAASNGCPVVGHMKYPVEGGGNQDWWPNRLNLKVLHQNPAVADPMGAAFDYAAEVATIDVDALTRDIEEVMTTSQPWWPADYGHYGPLFIRMAWHAAGTYRIHDGRGGAGGGMQRFAPLNSWPDNASLDKARRLLWPVKKKYGKKLSWADLIVFAGNCALESMGFKTFGFGFGRVDQWEPDEVYWGKEATWLGDERYSGKRDLENPLAAVQMGLIYVNPEGPNGNPDPMAAAVDIRETFRRMAMNDVETAALIVGGHTFGKTHGAGPADLVGPEPEAAPLEQMGLGWKSSYGTGTGKDAITSGIEVVWTNTPTKWDNSFLEILYGYEWELTKSPAGAWQYTAKDGAGAGTIPDPFGGPGRSPTMLATDLSLRVDPIYERITRRWLEHPEELADEFAKAWYKLIHRDMGPVARYLGPLVPKQTLLWQDPVPAVSHDLVGEAEIASLKSQIRASGLTVSQLVSTAWAAASSFRGSDKRGGANGGRIRLQPQVGWEVNDPDGDLRKVIRTLEEIQESFNSAAPGNIKVSFADLVVLGGCAAIEKAAKAAGHNITVPFTPGRTDASQEQTDVESFAVLEPKADGFRNYLGKGNPLPAEYMLLDKANLLTLSAPEMTVLVGGLRVLGANYKRLPLGVFTEASESLTNDFFVNLLDMGITWEPSPADDGTYQGKDGSGKVKWTGSRVDLVFGSNSELRALVEVYGADDAQPKFVQDFVAAWDKVMNLDRFDVR
The Km is the substrate concentration at which the rate is half of its maximum. As a reminder, the kcat/Km is the second-order rate constant that governs catalysis at low substrate concentration. B1: the Km in “purified protein [1]” was 2.1 ± 0.8 µM; in “purified protein [2]”, 210 ± 40 µM; in “purified protein [3]” it was 1900 ± 100 µM. Besides, the kcat/Km in the data set “purified protein [1]” came out at 3.1e+06 M⁻¹ s⁻¹; in “purified protein [2]”, 443 M⁻¹ s⁻¹; in “purified protein [3]” it was 50.6 M⁻¹ s⁻¹.

For the origin of these results see PMC10839757.
